{"source": "paper PMC10290082", "about": "“Tau protein binds to the P53 E3 ubiquitin ligase MDM2” (Scientific Reports, 2023)", "binders": {"B1": {"name": "pDIQ peptide (peptide)", "peptide": "ETFEHWWSQLLSGGC"}}, "biological_target": "T1, recombinant human MDM2 (human, UniProt Q00987 1-491)", "T1 construct": "E3 ubiquitin-protein ligase MDM2, human; source: bought: Biotechne (E3-204-050)", "T1 sequence (Q00987 whole entry)": "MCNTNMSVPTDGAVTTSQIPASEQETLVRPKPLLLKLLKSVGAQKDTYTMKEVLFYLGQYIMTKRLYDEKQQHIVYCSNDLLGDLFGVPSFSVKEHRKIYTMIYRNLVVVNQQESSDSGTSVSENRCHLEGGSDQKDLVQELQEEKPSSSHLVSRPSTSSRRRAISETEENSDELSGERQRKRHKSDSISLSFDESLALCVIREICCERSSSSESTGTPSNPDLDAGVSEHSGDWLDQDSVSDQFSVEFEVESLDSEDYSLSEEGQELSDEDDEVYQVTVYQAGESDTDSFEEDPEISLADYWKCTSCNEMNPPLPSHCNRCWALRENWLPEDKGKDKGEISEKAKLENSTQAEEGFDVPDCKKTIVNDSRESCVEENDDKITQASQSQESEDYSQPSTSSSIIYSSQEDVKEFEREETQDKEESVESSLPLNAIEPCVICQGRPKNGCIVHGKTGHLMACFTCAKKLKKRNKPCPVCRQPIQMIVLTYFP", "test": "pull-down; purified recombinant proteins (15 ng), alone or together, on beads coupled to the pDIQ peptide; uncoupled beads as control; western blot", "settings": "both partners purified"}
{"binder": "B1", "values": [{"measurement": "binding result", "value": "binds"}]}
